In patent US20160215040A1 (Regeneron, published 2016):

T1: hCNTFR.mmh (ciliary neurotrophic factor receptor.mmh) (human (printed as hCNTFR), UniProt P26992 23-342)
T1 construct: also called negative control protein; not shown: mmh (myc-myc-hexahistidine) tag
T1 sequence: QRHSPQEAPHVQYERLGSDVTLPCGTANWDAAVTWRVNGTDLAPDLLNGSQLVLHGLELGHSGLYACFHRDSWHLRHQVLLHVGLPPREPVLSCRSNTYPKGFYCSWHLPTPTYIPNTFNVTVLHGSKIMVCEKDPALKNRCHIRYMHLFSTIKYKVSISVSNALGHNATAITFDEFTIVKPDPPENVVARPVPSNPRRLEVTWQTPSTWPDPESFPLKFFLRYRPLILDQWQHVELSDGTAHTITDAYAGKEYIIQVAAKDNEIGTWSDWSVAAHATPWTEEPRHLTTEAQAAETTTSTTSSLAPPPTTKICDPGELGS

T2: Ebola virus GP, Cote d'Ivoire strain, on VLPs (Ebola virus, Cote d'Ivoire strain, UniProt Q66810 33-676)
T2 construct: also called Cote d'Ivoire FJ217162; Ivory Coast
T2 sequence: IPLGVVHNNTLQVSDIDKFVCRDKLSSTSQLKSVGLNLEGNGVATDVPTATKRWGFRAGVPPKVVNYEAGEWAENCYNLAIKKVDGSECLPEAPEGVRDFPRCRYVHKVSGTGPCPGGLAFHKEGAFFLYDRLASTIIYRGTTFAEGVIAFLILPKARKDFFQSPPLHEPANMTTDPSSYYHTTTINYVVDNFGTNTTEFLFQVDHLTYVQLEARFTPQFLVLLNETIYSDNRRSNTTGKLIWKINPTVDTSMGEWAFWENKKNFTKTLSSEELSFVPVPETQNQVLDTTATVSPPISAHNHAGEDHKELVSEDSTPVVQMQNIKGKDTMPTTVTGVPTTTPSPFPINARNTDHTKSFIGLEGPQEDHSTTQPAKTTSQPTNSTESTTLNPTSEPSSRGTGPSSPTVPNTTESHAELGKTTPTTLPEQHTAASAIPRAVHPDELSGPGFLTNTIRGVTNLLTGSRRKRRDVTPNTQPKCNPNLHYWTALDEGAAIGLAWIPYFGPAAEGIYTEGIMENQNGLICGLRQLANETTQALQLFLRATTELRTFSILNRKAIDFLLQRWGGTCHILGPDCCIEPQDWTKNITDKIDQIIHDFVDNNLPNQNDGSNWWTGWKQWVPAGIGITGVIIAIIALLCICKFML

T3: Ebola virus GP, Sudan strain, on VLPs (Ebola virus, Sudan strain, UniProt Q7T9D9 33-676)
T3 construct: also called Sudan NC_006432
T3 sequence: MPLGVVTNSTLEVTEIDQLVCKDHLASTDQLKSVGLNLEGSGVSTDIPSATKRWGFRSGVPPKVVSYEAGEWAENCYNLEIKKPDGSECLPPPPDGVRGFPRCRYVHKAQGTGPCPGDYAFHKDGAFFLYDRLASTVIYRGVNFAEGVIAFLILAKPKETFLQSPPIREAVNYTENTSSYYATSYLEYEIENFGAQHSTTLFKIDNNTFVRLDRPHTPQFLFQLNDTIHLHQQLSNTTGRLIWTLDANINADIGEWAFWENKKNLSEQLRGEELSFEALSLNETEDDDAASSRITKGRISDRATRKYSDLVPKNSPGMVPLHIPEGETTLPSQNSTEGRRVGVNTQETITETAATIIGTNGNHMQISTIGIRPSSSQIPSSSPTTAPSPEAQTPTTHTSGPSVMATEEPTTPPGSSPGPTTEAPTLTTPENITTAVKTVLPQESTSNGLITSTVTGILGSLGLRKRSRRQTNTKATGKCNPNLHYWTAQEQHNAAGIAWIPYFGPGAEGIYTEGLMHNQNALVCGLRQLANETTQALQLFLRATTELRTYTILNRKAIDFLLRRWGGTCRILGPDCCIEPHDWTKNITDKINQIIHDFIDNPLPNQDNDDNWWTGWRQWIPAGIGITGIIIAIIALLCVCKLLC

B1: H1H17162P (antibody, V domains shown)
VH: EVQLVESGGGLVQPGGSLRLSCAASEFTFSSYAMSWVRQAPGKGLEWVSAISGSSGSTYYADSVKGRFTISRDNSKKTLYLQMNSLRVEDTAVYYCAKGGYPHSFDIWGHGTMVTVSS
VL: DIQMTQSPSSLSASVGDRVTITCRASQSISSFLNWYQQKPGKAPKLLIYAASSLQSGVPSRFSGSGSGTDFTLTISSLQPEDFATYYCQQSYSSITFGQGTRLEIK
B2: H1H17161P (antibody, V domains shown)
VH: EVQLVESGGGLVQPGGSLRLSCAASGFTSSSYAMNWVRQAPGKGLEWVSTISGMGGSTYYADSVKGRFTISRDNSKNTLYLQMNSLRAEDTAVYYCAKRGYPHSFDIWGQGTMVTVSS
VL: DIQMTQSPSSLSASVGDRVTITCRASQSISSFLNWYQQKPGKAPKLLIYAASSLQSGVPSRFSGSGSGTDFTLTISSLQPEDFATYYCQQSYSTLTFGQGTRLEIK
notes: also called REGN H1H17161P
B3: H1H17134P (antibody, V domains shown)
VH: QLQLQESGPGLVKPSETLSLTCTVSGGSISSSSYYWGWIRQPPGKGLEWIGSIYYDGDTYYNPSLKSRVTISVDTSKNQFSLRLSSVTAADTAVYYCARQFDYWGQGTLVTVSS
VL: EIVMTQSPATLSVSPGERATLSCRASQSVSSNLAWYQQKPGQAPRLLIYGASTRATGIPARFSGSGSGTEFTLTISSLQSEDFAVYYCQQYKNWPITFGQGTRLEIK
B4: H2aM17356N (antibody, V domains shown)
VH: EVQLVESGGGLVQPGGSLRLSCAASGFTFSSYEMNWVRQAPGKGLEWVSYIGSSGRATYYADSVKGRFTISRDNAKNSLYLQMNSLRAEDTAVYYCARPSSIAALLRNQYHFGMDVWGQGTTVTVSS
VL: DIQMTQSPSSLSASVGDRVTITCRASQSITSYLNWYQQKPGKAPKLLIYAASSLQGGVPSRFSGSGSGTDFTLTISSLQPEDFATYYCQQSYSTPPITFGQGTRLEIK
notes: also called HCAF08C07-09
B5: H1H17360N (antibody, V domains shown)
VH: EVQLVESGGGLVQPGGSLRLSCAASGFTFSSYEMNWVRQAPGKGLEWVSYISSSGSTKYYADSVKGRFTISRDNAKNSLYLQMNSLRAEDTAVYYCARPSSIPALLRNQYHYGMDVWGQGTTVTVSS
VL: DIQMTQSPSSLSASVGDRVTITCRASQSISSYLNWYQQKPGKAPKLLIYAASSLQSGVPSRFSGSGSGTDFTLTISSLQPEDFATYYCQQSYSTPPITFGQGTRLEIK
B6: H1H17358N2 (antibody, V domains shown)
VH: EVQLVESGGGLVQPGGSLRLSCAASGFTFSTYEMNWVRQAPGKGLEWVSYSSSSGRTIYYADSVKGRFTISRDNAKNSLFLQMNSLRAEDTAVYYCARPSSIETLLRNQYHYGVDVWGQGTTVTVSS
VL: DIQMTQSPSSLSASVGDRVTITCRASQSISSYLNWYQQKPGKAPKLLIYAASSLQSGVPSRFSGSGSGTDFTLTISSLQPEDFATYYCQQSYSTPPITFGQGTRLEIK
B7: H1H17356N (antibody, V domains shown)
VH: EVQLVESGGGLVQPGGSLRLSCAASGFTFSSYEMNWVRQAPGKGLEWVSYIGSSGRATYYADSVKGRFTISRDNAKNSLYLQMNSLRAEDTAVYYCARPSSIAALLRNQYHFGMDVWGQGTTVTVSS
VL: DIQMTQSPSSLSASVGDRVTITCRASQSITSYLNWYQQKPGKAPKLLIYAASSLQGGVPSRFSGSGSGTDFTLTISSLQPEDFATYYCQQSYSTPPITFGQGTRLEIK
B8: H1H17151P (antibody, V domains shown)
VH: EVQLVESGGGLVQPGGSLRLSCAASGFTFSSYAMNWVRQAPGKGLEWVSVISGSGGWRNYADSVKGRITISRDNSKNTLYLQMNNLRAEDTAVYYCAKDRGATFGVVILGPPYYGMDVWGQGTTVTVSS
VL: DIQMTQSPSSLSASVRDRVTITCRASQSISTYLNWYQQKPGKAPKLLIYAASSLQSGVPSRFSGSGSGTGFTLTISSLQPEDFATYYCQQSYSIPYTFGQGTKLEIK
B9: H2aM17359N (antibody, V domains shown)
VH: EVQLVESGGGLAQPGGSLRLSCAASGFTFSSHEMNWVRQAPGKGLEWVSYISRSGRIINYADSVKGRFTISRDNAKNSLYLQMNSLRAEDTAVYYCARERGSYYDILTGSQDYGMDVWGQGTTVTVSS
VL: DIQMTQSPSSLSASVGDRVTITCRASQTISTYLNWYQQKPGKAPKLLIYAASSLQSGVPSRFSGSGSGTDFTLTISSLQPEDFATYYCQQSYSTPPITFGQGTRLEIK
notes: also called HCAF12C06-26
B10: H1H17359N (antibody, V domains shown)
VH: EVQLVESGGGLAQPGGSLRLSCAASGFTFSSHEMNWVRQAPGKGLEWVSYISRSGRIINYADSVKGRFTISRDNAKNSLYLQMNSLRAEDTAVYYCARERGSYYDILTGSQDYGMDVWGQGTTVTVSS
VL: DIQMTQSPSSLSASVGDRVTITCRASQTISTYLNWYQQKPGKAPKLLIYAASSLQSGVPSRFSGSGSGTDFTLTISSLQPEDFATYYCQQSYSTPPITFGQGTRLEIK
B11: H1H17142P (antibody, V domains shown)
VH: EVQLVESGGGLVQPGGSLRLSCAASGFTFSSYAMTWVRQAPGKGLEWVSSISGSGTSTYYADSVKGRFTISRDNSKNTLYLQMNSLRAEDTALYYCSRDIYTWNFLSLIGGMDVWGQGTTVTVSS
VL: DIQMTQSPSSLSASVGDRVTITCRASQGIRIDLGWYQQKPGKAPNRLIYAASSLQGGVPSRFSGSGSGTEFTLTISSLQPEDFATYYCLQQNSYPWTFGQGTKVEIK
B12: H1M17357N (antibody, V domains shown)
VH: QVQLVQSGAEVKKPGASVKVSCKASGYTFTSYYMHWVRQAPGQGLEWMGIINPSGGSTSYAQKFQGRVTMTRDTSTSTVYMELSSLRSEDTAVYYCAREIGEAGEVFNYWGQGTLVTVSS
VL: DIQMTQSPSSLSASVGDRVTITCRASQSISRYLNWYQHKPGKAPKVLIYAASILQSGVPSRFSGSGSGTDFTLTISSLQPEDFATYYCQQSYSTPPITFGQGTRLEIK
notes: also called HCAF09D11-13

Columns and labels:
[1] = molecular target: T1, hCNTFR.mmh (ciliary neurotrophic factor …); assay: BLI, mAb captured, 25C
[2] = molecular target: T2, Ebola virus GP, Cote d'Ivoire strain, …; assay: MSD, VLPs coated
[3] = molecular target: T4, Ebola virus GP with a C-terminal polyhistidine tag (Sino Biologicals, Catalog #40442-V08B1) (Ebola virus, UniProt P87666 33-650); assay: SPR 37C, mAb captured, pH chase
T4 construct: also called EbolaGP.his; Ebola virus GP.his

[4] = molecular target: T4, Ebola virus GP with a C-terminal …; assay: SPR 37C, mAb captured
[5] = molecular target: T4, Ebola virus GP with a C-terminal …; assay: SPR 25C, mAb captured
[6] = molecular target: T3, Ebola virus GP, Sudan strain, on VLPs; assay: MSD, VLPs coated

| Binder | binding result [1] | binding result [2] | t½ ratio pH 7.4/pH 5.0 [3] | t½ ratio pH 7.4/pH 6.0 [3] | Kd [4] | koff [4] | kon [4] | t½ [4] | Kd [5] | koff [5] | kon [5] | t½ [5] | binding result [6] |
| --- | --- | --- | --- | --- | --- | --- | --- | --- | --- | --- | --- | --- | --- |
| B1 | no binding (tested: below 0.10 nm at 300 nM) | no binding | 0.3 | 0.3 | 0.288 nM | ≤ 1e-05 s⁻¹ | 34700 M⁻¹ s⁻¹ | ≥ 1160 min | ≤ 0.46 nM | ≤ 1e-05 s⁻¹ | 21800 M⁻¹ s⁻¹ | ≥ 1160 min | – |
| B2 | – | no binding | 0.2 | 0.2 | 0.228 nM | ≤ 1e-05 s⁻¹ | 43900 M⁻¹ s⁻¹ | ≥ 1160 min | ≤ 0.189 nM | ≤ 1e-05 s⁻¹ | 52900 M⁻¹ s⁻¹ | ≥ 1160 min | – |
| B3 | – | no binding | 0.6 | 0.6 | 6.7 nM | 0.000469 s⁻¹ | 69900 M⁻¹ s⁻¹ | 24.6 min | 12.3 nM | 0.000941 s⁻¹ | 76500 M⁻¹ s⁻¹ | 12.3 min | no binding |
| B4 | – | – | 0.9 | 0.9 | 34.4 nM | 0.00025 s⁻¹ | 7260 M⁻¹ s⁻¹ | 46.2 min | 4.4 nM | 9.57e-05 s⁻¹ | 21800 M⁻¹ s⁻¹ | 121 min | no binding |
| B5 | no binding (tested: below 0.10 nm at 300 nM) | no binding | – | – | – | – | – | – | – | – | – | – | no binding |
| B6 | no binding (tested: below 0.10 nm at 300 nM) | no binding | – | – | – | – | – | – | – | – | – | – | no binding |
| B7 | no binding (tested: below 0.10 nm at 300 nM) | – | – | – | – | – | – | – | – | – | – | – | – |
| B8 | – | no binding | 0.01 | 0.03 | 17 nM | 0.000383 s⁻¹ | 22600 M⁻¹ s⁻¹ | 30.2 min | 7.49 nM | 9.44e-05 s⁻¹ | 12600 M⁻¹ s⁻¹ | 122 min | no binding |
| B9 | – | no binding | 0.7 | 0.8 | 22.9 nM | 0.000352 s⁻¹ | 15400 M⁻¹ s⁻¹ | 32.8 min | 50.9 nM | 0.000195 s⁻¹ | 3820 M⁻¹ s⁻¹ | 59.4 min | no binding |
| B10 | no binding (tested: below 0.10 nm at 300 nM) | – | – | – | – | – | – | – | – | – | – | – | – |
| B11 | no binding (tested: below 0.10 nm at 300 nM) | – | 0.5 | 0.5 | 6.68 nM | 0.000174 s⁻¹ | 26000 M⁻¹ s⁻¹ | 66.6 min | 1.41 nM | 2.81e-05 s⁻¹ | 20000 M⁻¹ s⁻¹ | 411 min | no binding |
| B12 | no binding (tested: below 0.10 nm at 300 nM) | no binding | 0.5 | 0.8 | 78.1 nM | 0.00184 s⁻¹ | 23500 M⁻¹ s⁻¹ | 6.3 min | – | – | – | – | no binding |
